Measurements: article PMC7360973 (2020)
Ends that are not written are not given here.

Biological target: Human Hsc70 (HSPA8) (human, UniProt P11142 1-646)
Test: FP

Sequence of Human Hsc70 (HSPA8) (P11142 whole entry): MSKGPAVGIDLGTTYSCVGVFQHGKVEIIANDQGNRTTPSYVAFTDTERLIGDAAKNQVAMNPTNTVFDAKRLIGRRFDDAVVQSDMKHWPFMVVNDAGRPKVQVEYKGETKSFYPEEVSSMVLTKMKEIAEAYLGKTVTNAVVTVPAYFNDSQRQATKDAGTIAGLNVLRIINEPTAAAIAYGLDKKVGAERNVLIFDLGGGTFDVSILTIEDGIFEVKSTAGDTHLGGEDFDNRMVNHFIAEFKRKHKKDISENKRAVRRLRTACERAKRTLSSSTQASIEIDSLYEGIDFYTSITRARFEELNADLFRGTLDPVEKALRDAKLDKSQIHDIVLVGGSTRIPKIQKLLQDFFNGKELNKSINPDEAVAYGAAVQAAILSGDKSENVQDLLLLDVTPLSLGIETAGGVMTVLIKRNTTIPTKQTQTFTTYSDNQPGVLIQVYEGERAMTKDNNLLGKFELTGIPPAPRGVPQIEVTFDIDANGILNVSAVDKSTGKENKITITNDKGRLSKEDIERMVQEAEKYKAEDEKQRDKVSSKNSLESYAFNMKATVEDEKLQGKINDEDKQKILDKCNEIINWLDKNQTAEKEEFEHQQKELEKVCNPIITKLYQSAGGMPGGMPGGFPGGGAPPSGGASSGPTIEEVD

B1: Hsf1 peptide P223‐H235‐C (peptide)
peptide: PKYSRQFSLEHVHC(fluorescein‑5‑maleimide)
- Kd: > 60 µM

B2: Hsf1 peptide N200‐K208‐C_SSS (peptide)
peptide: NRSSGSKRKC(fluorescein‑5‑maleimide)
- Kd: > 60 µM

B3: Hsf1 peptide N74‐Q86‐C (peptide)
peptide: NMYGFRKVVHIEQC(fluorescein‑5‑maleimide)
- Kd: > 60 µM

B4: Hsf1 peptide G204‐N214‐C_SSS (peptide)
peptide: GVKRKSPSMSNC(fluorescein‑5‑maleimide)
- Kd: > 60 µM
